Experimental data reported in IntAct's records for PubMed 17525340.

B1: BRCA1-A complex subunit Abraxas 1 (Homo sapiens), Q6UWZ7 (parent)
chain: MEGESTSAVLSGFVLGALAFQHLNTDSDTEGFLLGEVKGEAKNSITDSQMDDVEVVYTIDIQKYIPCYQLFSFYNSSGEVNEQALKKILSNVKKNVVGWYKFRRHSDQIMTFRERLLHKNLQEHFSNQDLVFLLLTPSIITESCSTHRLEHSLYKPQKGLFHRVPLVVANLGMSEQLGYKTVSGSCMSTGFSRAVQTHSSKFFEEDGSLKEVHKINEMYASLQEELKSICKKVEDSEQAVDKLVKDVNRLKREIEKRRGAQIQAAREKNIQKDPQENIFLCQALRTFFPNSEFLHSCVMSLKNRHVSKSSCNYNHHLDVVDNLTLMVEHTDIPEASPASTPQIIKHKALDLDDRWQFKRSRLLDTQDKRSKADTGSSNQDKASKMSSPETDEEIEKMKGFGEYSRSPTF
partner: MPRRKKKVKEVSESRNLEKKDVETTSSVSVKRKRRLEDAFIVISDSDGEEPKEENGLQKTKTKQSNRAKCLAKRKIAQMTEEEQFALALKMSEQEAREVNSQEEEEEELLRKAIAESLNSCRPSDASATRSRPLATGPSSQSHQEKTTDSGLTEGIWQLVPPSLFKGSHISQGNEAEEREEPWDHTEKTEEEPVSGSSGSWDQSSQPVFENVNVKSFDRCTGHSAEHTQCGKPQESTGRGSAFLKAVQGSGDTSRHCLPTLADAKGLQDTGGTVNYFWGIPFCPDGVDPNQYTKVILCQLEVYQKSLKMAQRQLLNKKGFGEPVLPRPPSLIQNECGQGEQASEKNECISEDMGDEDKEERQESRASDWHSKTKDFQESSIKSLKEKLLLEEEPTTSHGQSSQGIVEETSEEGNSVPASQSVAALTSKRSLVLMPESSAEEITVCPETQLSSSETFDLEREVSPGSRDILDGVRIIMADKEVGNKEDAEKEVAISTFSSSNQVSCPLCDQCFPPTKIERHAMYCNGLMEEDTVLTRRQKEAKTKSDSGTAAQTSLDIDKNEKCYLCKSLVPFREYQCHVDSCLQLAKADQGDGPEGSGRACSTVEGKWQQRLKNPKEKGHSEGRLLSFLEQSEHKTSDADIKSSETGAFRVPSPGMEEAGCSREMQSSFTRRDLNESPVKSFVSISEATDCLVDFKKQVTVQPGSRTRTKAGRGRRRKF
B2: BRCA1-A complex subunit Abraxas 1 (Homo sapiens), Q6UWZ7 (parent)
chain: B1 chain

Variants of: B1
Conditions: with uimc1_human UIMC1, Q96RL1

effect of a mutation on the interaction | Variant
disrupting interaction | MEGESTSAVLSGFVLGALAFQHLNTDSDTEGFLLGEVKGEAKNSITDSQMDDVEVVYTIDIQKYIPCYQLFSFYNSSGEVNEQALKKILSNVKKNVVGWYKFRRHSDQIMTFRERLLHKNLQEHFSNQDLVFLLLTPSIITESCSTHRLEHSLYKPQKGLFHRVPLVVANLGMSEQLGYKTVSGSCMSTGFSRAVQTHSSKFFEEDGSLKEVHKINEMYASLQEELKSICKKVEDSEQAVDKLVKDVNRLKREIEKRRGAQIQAAREKNIQKDPQENIFLCQALRTFFPNSEFLHSCVMSLKNRHVSKSSCNYNHHLDVVDNLTLMVEHTDIPEASPASTPQIIKHKALDLDDRWQFKRSRLLDTQDKRSKADTGSSNQDKASKMSSPETDEEIEKMKGFGEYSRAPTF [S406A]

Variants of: B2
Conditions: with brca1_human BRCA1, P38398
brca1_human BRCA1, P38398, sequence (P38398 whole entry, looked up): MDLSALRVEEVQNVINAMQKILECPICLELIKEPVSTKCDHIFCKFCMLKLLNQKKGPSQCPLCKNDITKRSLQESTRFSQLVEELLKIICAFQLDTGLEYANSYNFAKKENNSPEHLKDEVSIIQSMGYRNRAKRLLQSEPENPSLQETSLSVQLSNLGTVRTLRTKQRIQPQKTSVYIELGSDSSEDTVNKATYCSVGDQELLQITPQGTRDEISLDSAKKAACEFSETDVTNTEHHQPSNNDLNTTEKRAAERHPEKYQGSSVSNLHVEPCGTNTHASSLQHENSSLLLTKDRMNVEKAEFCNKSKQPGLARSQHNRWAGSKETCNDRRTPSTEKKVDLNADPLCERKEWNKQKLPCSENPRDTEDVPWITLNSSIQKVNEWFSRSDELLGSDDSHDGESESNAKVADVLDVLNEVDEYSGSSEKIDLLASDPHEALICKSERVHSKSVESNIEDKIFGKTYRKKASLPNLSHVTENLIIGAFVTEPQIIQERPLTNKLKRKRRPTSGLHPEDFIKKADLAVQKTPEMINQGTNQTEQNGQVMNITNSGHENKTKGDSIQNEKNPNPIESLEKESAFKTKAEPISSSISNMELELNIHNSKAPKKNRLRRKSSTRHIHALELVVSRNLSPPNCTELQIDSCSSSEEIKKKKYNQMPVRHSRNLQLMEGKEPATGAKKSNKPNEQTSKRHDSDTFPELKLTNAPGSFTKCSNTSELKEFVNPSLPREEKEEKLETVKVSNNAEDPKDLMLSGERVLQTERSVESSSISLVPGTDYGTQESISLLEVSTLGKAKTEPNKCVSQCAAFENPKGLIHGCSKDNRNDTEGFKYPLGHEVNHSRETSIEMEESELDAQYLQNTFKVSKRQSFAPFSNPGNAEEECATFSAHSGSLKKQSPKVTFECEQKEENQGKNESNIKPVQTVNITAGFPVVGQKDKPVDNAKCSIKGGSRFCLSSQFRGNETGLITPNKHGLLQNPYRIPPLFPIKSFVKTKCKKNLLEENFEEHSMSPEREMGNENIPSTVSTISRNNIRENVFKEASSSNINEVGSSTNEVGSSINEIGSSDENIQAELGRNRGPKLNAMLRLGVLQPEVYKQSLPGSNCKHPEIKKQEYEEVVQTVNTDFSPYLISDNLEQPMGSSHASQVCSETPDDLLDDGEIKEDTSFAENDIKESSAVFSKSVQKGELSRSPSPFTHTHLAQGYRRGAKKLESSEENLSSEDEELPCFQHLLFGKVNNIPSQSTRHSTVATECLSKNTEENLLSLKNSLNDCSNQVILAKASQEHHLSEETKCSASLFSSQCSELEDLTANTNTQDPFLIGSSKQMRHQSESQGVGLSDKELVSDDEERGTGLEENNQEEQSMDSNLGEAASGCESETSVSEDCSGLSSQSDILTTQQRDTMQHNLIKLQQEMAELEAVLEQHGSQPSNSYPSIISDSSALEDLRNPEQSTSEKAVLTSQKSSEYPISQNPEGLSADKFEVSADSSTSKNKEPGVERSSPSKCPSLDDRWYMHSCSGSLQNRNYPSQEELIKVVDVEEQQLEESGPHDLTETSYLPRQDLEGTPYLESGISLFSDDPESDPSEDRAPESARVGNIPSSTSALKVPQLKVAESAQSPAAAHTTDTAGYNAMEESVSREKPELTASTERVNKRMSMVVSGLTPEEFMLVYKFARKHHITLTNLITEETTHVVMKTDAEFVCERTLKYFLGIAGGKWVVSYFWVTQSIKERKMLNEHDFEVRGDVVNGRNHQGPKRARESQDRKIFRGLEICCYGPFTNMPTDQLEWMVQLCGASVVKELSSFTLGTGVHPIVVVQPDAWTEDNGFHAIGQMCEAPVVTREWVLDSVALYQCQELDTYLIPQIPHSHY

effect of a mutation on the interaction | Variant
disrupting interaction | MEGESTSAVLSGFVLGALAFQHLNTDSDTEGFLLGEVKGEAKNSITDSQMDDVEVVYTIDIQKYIPCYQLFSFYNSSGEVNEQALKKILSNVKKNVVGWYKFRRHSDQIMTFRERLLHKNLQEHFSNQDLVFLLLTPSIITESCSTHRLEHSLYKPQKGLFHRVPLVVANLGMSEQLGYKTVSGSCMSTGFSRAVQTHSSKFFEEDGSLKEVHKINEMYASLQEELKSICKKVEDSEQAVDKLVKDVNRLKREIEKRRGAQIQAAREKNIQKDPQENIFLCQALRTFFPNSEFLHSCVMSLKNRHVSKSSCNYNHHLDVVDNLTLMVEHTDIPEASPASTPQIIKHKALDLDDRWQFKRSRLLDTQDKRSKADTGSSNQDKASKMSSPETDEEIEKMKGFGEYSRAPTF [S406A]

Variants of: B2
Conditions: with brca1_human BRCA1, P38398
Remark: another data set of the same source

effect of a mutation on the interaction | Variant
increasing interaction | MEGESTSAVLSGFVLGALAFQHLNTDSDTEGFLLGEVKGEAKNSITDSQMDDVEVVYTIDIQKYIPCYQLFSFYNSSGEVNEQALKKILSNVKKNVVGWYKFRRHSDQIMTFRERLLHKNLQEHFSNQDLVFLLLTPSIITESCSTHRLEHSLYKPQKGLFHRVPLVVANLGMSEQLGYKTVSGSCMSTGFSRAVQTHSSKFFEEDGSLKEVHKINEMYASLQEELKSICKKVEDSEQAVDKLVKDVNRLKREIEKRRGAQIQAAREKNIQKDPQENIFLCQALRTFFPNSEFLHSCVMSLKNRHVSKSSCNYNHHLDVVDNLTLMVEHTDIPEASPASTPQIIKHKALDLDDRWQFKRSRLLDTQDKRSKADTGSSNQDKASKMSSPETDEEIEKMKGFGEYSRAPTF [S406A]
